The text below walks through data of patent publication US7083949.

The target in this test is T1, Protein A (UniProt P38507 37-477).
T1 construct: Precipitation reagent; also called Protein A-Sepharose
The experiment in a line: Protein A-Sepharose precipitation, anti-kappa western blot. On the technique in general: A western blot detects proteins with antibodies after separation by electrophoresis.

Experimental: In a different set of experiments the ability of the ligand Traps to multimerize in the presence of ligand was tested.

B1: gp130-CH1•IL-6Rα-κ (other)
chain 1: ELLDPCGYISPESPVVQLHSNFTAVCVLKEKCMDYFHVNANYIVWKTNHFTIPKEQYTIINRTASSVTFTDIASLNIQLTCNILTFGQLEQNVYGITIISGLPPEKPKNLSCIVNEGKKMRCEWDGGRETHLETNFTLKSEWATHKFADCKAKRDTPTSCTVDYSTVYFVNIEVWVEAENALGKVTSDHINFDPVYKVKPNPPHNLSVINSEELSSILKLTWTNPSIKSVIILKYNIQYRTKDASTWSQIPPEDTASTRSSFTVQDLKPFTEYVFRIRCMKEDGKGYWSDWSEEASGITYEDRPSKAPSFWYKIDPSHTQGYRTVQLVWKTLPPFEANGKILDYEVTLTRWKSHLQNYTVNATKLTVNLTNDRYLATLTVRNLVGKSDAAVLTIPACDFQATHPVMDLKAFPKDNMLWVEWTTPRESVKKYILEWCVLSDKAPCITDWQQEDGTVHRTYLRGNLAESKCYLITVTPVYADGPGSPESIKAYLKQAPPSKGPTVRTKKVGKNEAVLEWDQLPVDVQNGFIRNYTIFYRTIIGNETAVNVDSSHTEYTLSSLTSDTLYMVRMAAYTDEGGKDGPEFTFTTPKFAQGEIESGGQGTLVTVSSASTKGPSVFPLAPSSKSTSGGTAALGCLVKDYFPEPVTVSWNSGALTSGVHTFPAVLQSSGLYSLSSVVTVPSSSLGTQTYICNVNHKPSNTKVDKKVEPKSCDKTHT
chain 2: LAPRRCPAQEVARGVLTSLPGDSVTLTCPGVEPEDNATVHWVLRKPAAGSHPSRWAGMGRRLLLRSVQLHDSGNYSCYRAGRPAGTVHLLVDVPPEEPQLSCFRKSPLSNVVCEWGPRSTPSLTTKAVLLVRKFQNSPAEDFQEPCQYSQESQKFSCQLAVPEGDSSFYIVSMCVASSVGSKFSKTQTFQGCGILQPDPPANITVTAVARNPRWLSVTWQDPHSWNSSFYRLRFELRYRAERSKTFTTWMVKDLQHHCVIHDAWSGLRHVVQLRAQEEFGQGEWSEWSPEAMGTPWTESRSPPAENEVSTPMQALTTNKDDDNILFRDSANATSLPVQDAGTVAAPSVFIFPPSDEQLKSGTASVVCLLNNFYPREAKVQWKVDNALQSGNSQESVTEQDSKDSTYSLSSTLTLSKADYEKHKVYACEVTHQGLSSPVTKSFNRGEC
notes: the experiment prints gp130-CH1; also called G16K
B1: the binding result was “no binding”.
